Changes are numbered by the printed parent chain.
B1: TopBP1-BRCT0-5-WT: recombinant TopBP1 amino acids 1–766, strep-tagged (protein)
chain: MSRNDKEPFFVKFLKSSDNSKCFFKALESIKEFQSEEYLQIITEEEALKIKENDRSLYICDPFSGVVFDHLKKLGCRIVGPQVVIFCMHHQRCVPRAEHPVYNMVMSDVTISCTSLEKEKREEVHKYVQMMGGRVYRDLNVSVTHLIAGEVGSKKYLVAANLKKPILLPSWIKTLWEKSQEKKITRYTDINMEDFKCPIFLGCIICVTGLCGLDRKEVQQLTVKHGGQYMGQLKMNECTHLIVQEPKGQKYECAKRWNVHCVTTQWFFDSIEKGFCQDESIYKTEPRPEAKTMPNSSTPTSQINTIDSRTLSDVSNISNINASCVSESICNSLNSKLEPTLENLENLDVSAFQAPEDLLDGCRIYLCGFSGRKLDKLRRLINSGGGVRFNQLNEDVTHVIVGDYDDELKQFWNKSAHRPHVVGAKWLLECFSKGYMLSEEPYIHANYQPVEIPVSHKPESKAALLKKKNSSFSKKDFAPSEKHEQADEDLLSQYENGSSTVVEAKTSEARPFNDSTHAEPLNDSTHISLQEENQSSVSHCVPDVSTITEEGLFSQKSFLVLGFSNENESNIANIIKENAGKIMSLLSRTVADYAVVPLLGCEVEATVGEVVTNTWLVTCIDYQTLFDPKSNPLFTPVPVMTGMTPLEDCVISFSQCAGAEKESLTFLANLLGASVQEYFVRKSNAKKGMFASTHLILKERGGSKYEAAKKWNLPAVTIAWLLETARTGKRADESHFLIENSTKEERSLETEITNGINLNSDTAEHP
modifications: left off: Strep, C-terminal, kept
notes: recombinant TopBP1 amino acids 1–766, strep-tagged
B2: TopBP1-Gpp: TopBP1-BRCT0-5, central leucine-leucine motif mutated to two consecutive prolines (protein)
chain: B1 chain with L490P, L491P
modifications: left off: Strep, C-terminal, kept
notes: TopBP1-BRCT0-5, central leucine-leucine motif mutated to two consecutive prolines
B3: TopBP1-B4mut: Val590, Thr606 and Val610 mutated to glutamate, arginine and glutamate (protein)
chain: B1 chain with V590E, T606R, V610E
modifications: left off: Strep, C-terminal, kept

Key:
Format in all cases: binding
[1] = test system: GINS lacking the Psf1-B domain (Psf1-ΔB); experiment: Pulldown of TopBP1 versions by GINS with Psf1-ΔB compared to GINS-WT; conditions: GINS-WT vs Psf1-ΔB
Description: We next explored the relationship between the interactions of TopBP1 and DNA Polε with GINS. These proteins are part of the recently characterised metazoan pre-LC[37]–[40]. […] These pre-LC models are less informative on how DNA Polε affects the TopBP1-GINS interaction. The N-terminal region of PolE2 (PolE2-N; aa 1–75) binds GINS mainly at the Psf1-B domain, with minor interactions with residues in the A-domain that partly overlap with the TopBP1-BRCT4 interaction surface (Fig. 7a–c). To test if the Psf1-B domain is required for TopBP1 interaction, we did pulldowns with GINS lacking the Psf1-B domain (Psf1-ΔB). […] This could be due to a residual affinity of BRCT4 for Psf1-ΔB or due to the GINI-Psf1 interaction. We therefore analysed specifically the interaction of GINS with BRCT4 using the TopBP1-Gcc mutant. […] The moderate effect of the B domain deletion on BRCT4 binding is consistent with the partial overlap of the BRCT4 and PolE2 binding sites in Psf1. […] Together, in pre-LC, TopBP1 likely binds GINS through the GINI region, potentially also involving a residual affinity of BRCT4 for GINS despite the presence of DNA Polε. TopBP1 and GINS are likely further stabilised in pre-LCs via their interactions with DONSON[37],[38],[41]. […]

[2] = test system: GINS complex; experiment: Size exclusion chromatography co-elution with GINS; conditions: Superdex200; 20 µM of each component; 10 mM HEPES pH 7.5, 150 mM NaCl, 0.5 mM TCEP
Method: Recombinant TopBP1 and GINS proteins were mixed in an equimolar ratio to give a final concentration of 20 µM of each component and incubated on ice for at least 30 min prior to application to a Superdex200increase 10 300 column (GE Healthcare, Little Chalfont, UK) equilibrated in 10 mM HEPES pH 7.5, 150 mM NaCl, 0.5 mM TCEP.

[3] = test system: 53BP1; experiment: Pulldown of endogenous 53BP1 from 293T cell lysates with recombinant TopBP1; conditions: pulldown from 293T cell lysates, immunoblotting; 2 h, 4 °C
Method: For pulldown assays from soluble lysates of non-transfected 293T cells, 5 µl streptactin Sepharose HP (Cytiva, 28935599) beads were coupled with 10 µg recombinant TopBP1-1-766-strep-WT or mutants in coupling buffer (20 mM HEPES pH 8.0, 150 mM NaCl, 0.1% (v/v) Tween-20, 0.5 mM TCEP, 2% (v/v) glycerol) for 45 min at 4 °C before washing two times with coupling buffer and then once in cell lysis buffer (20 mM HEPES pH 8.0, 150 mM NaCl, 0.1% (v/v) Tween-20, 0.5 mM TCEP, 2% (v/v) glycerol, protease inhibitor cocktail (Roche Complete protease inhibitor cocktail, 05056489001). Control pulldowns were done with Flag-peptide-coupled beads or, when indicated, using GINS-coupled beads and the non-GINS binding TopBP1-Gcc-B4mut. 293T cells were lysed in ten times pellet volume of cell lysis buffer, and centrifuged at 20,000 × g for 15 min at 4 °C. Soluble lysate from cells equivalent to 50% of a 15 cm tissue culture plate was added to the TopBP1-coupled beads and incubated for 2 h at 4 °C rotating. Beads were washed three times with 5 min incubation in lysis buffer and boiled in 50 µl Laemmli buffer before SDS PAGE.
Supplementary Fig. 6: Experiments to control quality of recombinant protein mutants. a: Recombinant TopBP1 point mutants of the GINI and BRCT4 regions bind 53BP1 phospho-dependently. […] Lysates and pulldowns were analysed by immunoblofng. […]

| Molecule | effect of Psf1-B domain deletion on TopBP1 binding, 100 mM NaAc [1] | co-elution with GINS from size exclusion column [2] | binding to (phospho-)53BP1 [3] |
| --- | --- | --- | --- |
| B1 | the B domain had no influence | co-eluted with the GINS complex |  |
| B2 |  |  | no effect on binding to 53BP1 |
| B3 | the B domain had no influence |  | could still interact with phospho-53BP1 |

Source: publication PMC10899662, “TopBP1 utilises a bipartite GINS binding mode to support genome replication” (Nature Communications, 2024)
